In paper PMC9226498, “Structural basis for interaction between CLAMP and MSL2 proteins involved in the specific recruitment of the dosage compensation complex in Drosophila” (Nucleic Acids Research, 2022):

Target: T1, CLAMP^40–153 (Drosophila melanogaster, UniProt Q9V9N4 40-153)
T1 construct: Tags and their cleavage are told only in the Supplementary Information; source: E. coli BL21 (DE3), purified (IMAC, anion-exchange chromatography)
T1 sequence (looked up): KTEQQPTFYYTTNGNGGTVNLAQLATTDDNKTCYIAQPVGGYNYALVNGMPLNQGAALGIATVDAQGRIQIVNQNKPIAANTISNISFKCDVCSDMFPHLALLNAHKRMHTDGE
Test: NMR titration; stable isotope-labeled MSL2 618–655 titrated with unlabeled CLAMP 40–153 (or CLAMP 41–153 L139A/K146E); chemical shift perturbation, fast exchange; 25°C
Conditions: both partners purified

Kd: 200 ± 100 µM
B1: MSL2^618–655 (domain or fragment, Drosophila melanogaster, UniProt P50534 618-655, looked up)
chain: ISLVPLNNLQQSQHPLVLVQNEKGEYQGFNIFQGSKPL
notes: Unlabelled or 13C,15N-labelled for NMR; Tags and their cleavage are told only in the Supplementary Information; also called MSL2 peptide; source: E. coli BL21 (DE3), purified (IMAC, anion-exchange chromatography)
